From publication doi:10.1101/2025.03.30.646161

Tested on: P04156
Settings: AUC

## Recombinant huPrP (23-230) from E. coli
  percent of total signal as aggregates: about 71 % of total signal
  percent of total signal as large aggregates: 58.3 % of total signal
